Assay results from patent US20090099029.

Biological target: T1, Bovine, dephosphorylated, Myelin Basic Protein (MBP), P02687
T1 chain: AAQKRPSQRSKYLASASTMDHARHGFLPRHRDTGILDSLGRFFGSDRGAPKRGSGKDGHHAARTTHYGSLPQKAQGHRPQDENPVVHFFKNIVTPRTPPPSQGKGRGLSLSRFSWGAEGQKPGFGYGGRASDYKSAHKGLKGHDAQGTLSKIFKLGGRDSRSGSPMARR

Protein	MBP Kinase Activity
RPS6KB2(p70S6K2) (protein) MAAVFDLDLETEEGSEGEGEPELSPADACPLAELRAAGLEPVGHYEEVELTETSVNVGPERIGPHCFELLRVLGKGGYGKVFQVRKVQGTNLGKIYAMKVLRKAKIVRNAKDTAHTRAERNILESVKHPFIVELAYAFQTGGKLYLILECLSGGELFTHLEREGIFLEDTACFYLAEITLALGHLHSQGIIYRDLKPENIMLSSQGHIKLTDFGLCKESIHEGAVTHTFCGTIEYMAPEILVRSGHNRAVDWWSLGALMYDMLTGSPPFTAENRKKTMDKIIRGKLALPPYLTPDARDLVKKFLKRNPSQRIGGGPGDAADVQRHPFFRHMNWDDLLAWRVDPPFRPCLQSEEDVSQFDTRFTRQTPVDSPDDTALSESANQAFLGFTYVAPSVLDSIKEGFSFQPKLRSPRRLNSSPRAPVSPLKFSPFEGFRPSPSLPEPTELPLPPLLPPPPPSTTAPLPIRPPSGTKKSKRGRGRPGR	Negative
TAOK3(JIK) (protein) MRKGVLKDPEIADLFYKDDPEELFIGLHEIGHGSFGAVYFATNAHTSEVVAIKKMSYSGKQTHEKWQDILKEVKFLRQLKHPNTIEYKGCYLKEHTAWLVMEYCLGSASDLLEVHKKPLQEVEIAAITHGALHGLAYLHSHALIHRDIKAGNILLTEPGQVKLADFGSASMASPANSFVGTPYWMAPEVILAMDEGQYDGKVDIWSLGITCIELAERKPPLFNMNAMSALYHIAQNDSPTLQSNEWTDSFRRFVDYCLQKIPQERPTSAELLRHDFVRRDRPLRVLIDLIQRTKDAVRELDNLQYRKMKKILFQETRNGPLNESQEDEEDSEHGTSLNREMDSLGSNHSIPSMSVSTGSQSSSVNSMQEVMDESSSELVMMHDDESTINSSSSVVHKKDHVFIRDEAGHGDPRPEPRPTQSVQSQALHYRNRERFATIKSASLVTRQIHEHEQENELREQMSGYKRMRRQHQKQLIALENKLKAEMDEHRLKLQKEVETHANNSSIELEKLAKKQVAIIEKEAKVAAADEKKFQQQILAQQKKDLTTFLESQKKQYKICKEKIKEEMNEDHSTPKKEKQERISKHKENLQHTQAEEEAHLLTQQRLYYDKNCRFFKRKIMIKRHEVEQQNIREELNKKRTQKEMEHAMLIRHDESTRELEYRQLHTLQKLRMDLIRLQHQTELENQLEYNKRRERELHRKHVMELRQQPKNLKAMEMQIKKQFQDTCKVQTKQYKALKNHQLEVTPKNEHKTILKTLKDEQTRKLAILAEQYEQSINEMMASQALRLDEAQEAECQALRLQLQQEMELLNAYQSKIKMQTEAQHERELQKLEQRVSLRRAHLEQKIEEELAALQKERSERIKNLLERQEREIETFDMESLRMGFGNLVTLDFPKEDYR	Strong
STK22B(TSSK2) (protein) MDDATVLRKKGYIVGINLGKGSYAKVKSAYSERLKFNVAVKIIDRKKTPTDFVERFLPREMDILATVNHGSIIKTYEIFETSDGRIYIIMELGVQGDLLEFIKCQGALHEDVARKMFRQLSSAVKYCHDLDIVHRDLKCENLLLDKDFNIKLSDFGFSKRCLRDSNGRIILSKTFCGSAAYAAPEVLQSIPYQPKVYDIWSLGVILYIMVCGSMPYDDSDIRKMLRIQKEHRVDFPRSKNLTCECKDLIYRMLQPDVSQRLHIDEILSHSWLQPPKPKATSSASFKREGEGKYRAECKLDTKTGLRPDHRPDHKLGAKTQHRLLVVPENENRMEDRLAETSRAKDHHISGAEVGKAST	Negative
STK17A(DRAK1) (protein) MIPLEKPGSGGSSPGATSGSGRAGRGLSGPCRPPPPPQARGLLTEIRAVVRTEPFQDGYSLCPGRELGRGKFAVVRKCIKKDSGKEFAAKFMRKRRKGQDCRMEIIHEIAVLELAQDNPWVINLHEVYETASEMILVLEYAAGGEIFDQCVADREEAFKEKDVQRLMRQILEGVHFLHTRDVVHLDLKPQNILLTSESPLGDIKIVDFGLSRILKNSEELREIMGTPEYVAPEILSYDPISMATDMWSIGVLTYVMLTGISPFLGNDKQETFLNISQMNLSYSEEEFDVLSESAVDFIRTLLVKKPEDRATAEECLKHPWLTQSSIQEPSFRMEKALEEANALQEGHSVPEINSDTDKSETKESIVTEELIVVTSYTLGQCRQSEKEKMEQKAISKRFKFEEPLLQEIPGEFIY	Negative
SRPK2 (protein) MSSRKVLAIQARKRRPKREKHPKKPEPQQKAPLVPPPPPPPPPPPPPLPDPTPPEPEEEILGSDDEEQEDPADYCKGGYHPVKIGDLFNGRYHVIRKLGWGHFSTVWLCWDMQGKRFVAMKVVKSAQHYTETALDEIKLLKCVRESDPSDPNKDMVVQLIDDFKISGMNGIHVCMVFEVLGHHLLKWIIKSNYQGLPVRCVKSIIRQVLQGLDYLHSKCKIIHTDIKPENILMCVDDAYVRRMAAEATEWQKAGAPPPSGSAVSTAPQQKPIGKISKNKKKKLKKKQKRQAELLEKRLQEIEELEREAERKIIEENITSAAPSNDQDGEYCPEVKLKTTGLEEAAEAETAKDNGEAEDQEEKEDAEKENIEKDEDDVDQELANIDPTWIESPKTNGHIENGPFSLEQQLDDEDDDEEDCPNPEEYNLDEPNAESDYTYSSSYEQFNGELPNGRHKIPESQFPEFSTSLFSGSLEPVACGSVLSEGSPLTEQEESSPSHDRSRTVSASSTGDLPKAKTRAADLLVNPLDPRNADKIRVKIADLGNACWVHKHFTEDIQTRQYRSIEVLIGAGYSTPADIWSTACMAFELATGDYLFEPHSGEDYSRDEDHIAHIIELLGSIPRHFALSGKYSREFFNRRGELRHITKLKPWSLFDVLVEKYGWPHEDAAQFTDFLIPMLEMVPEKRASAGECLRHPWLNS	Strong
STK22D(TSSK1) (protein) MDDAAVLKRRGYLLGINLGEGSYAKVKSAYSERLKFNVAIKIIDRKKAPADFLEKFLPREIEILAMLNHCSIIKTYEIFETSHGKVYIVMELAVQGDLLELIKTRGALHEDEARKKFHQLSLAIKYCHDLDVVHRDLKCDNLLLDKDFNIKLSDFSFSKRCLRDDSGRMALSKTFCGSPAYAAPEVLQGIPYQPKVYDIWSLGVILYIMVCGSMPYDDSNIKKMLRIQKEHRVNFPRSKHLTGECKDLIYHMLQPDVNRRLHIDEILSHCWMQPKARGSPSVAINKEGESSRGTEPLWTPEPGSDKKSATKLEPEGEAQPQAQPETKPEGTAMQMSRQSEILGFPSKPSTMETEEGPPQQPPETRAQ	Strong
SLK (protein) MSFFNFRKIFKLGSEKKKKQYEHVKRDLNPEDFWEIIGELGDGAFGKVYKAQNKETSVLAAAKVIDTKSEEELEDYMVEIDILASCDHPNIVKLLDAFYYENNLWILIEFCAGGAVDAVMLELERPLTESQIQVVCKQTLDALNYLHDNKIIHRDLKAGNILFTLDGDIKLADFGVSAKNTRTIQRRDSFIGTPYWMAPEVVMCETSKDRPYDYKADVWSLGITLIEMAEIEPPHHELNPMRVLLKIAKSEPPTLAQPSRWSSNFKDFLKKCLEKNVDARWTTSQLLQHPFVTVDSNKPIRELIAEAKAEVTEEVEDGKEEDEEEETENSLPIPASKRASSDLSIASSEEDKLSQNACILESVSEKTERSNSEDKLNSKILNEKPTTDEPEKAVEDINEHITDAQLEAMTELHDRTAVIKENEREKRPKLENLPDTEDQETVDINSVSEGKENNIMITLETNIEHNLKSEEEKDQEKQQMFENKLIKSEEIKDTILQTVDLVSQETGEKEANIQAVDSEVGLTKEDTQEKLGEDDKTQKDVISNTSDVIGTCEAADVAQKVDEDSAEDTQSNDGKEVVEVGQKLINKPMVGPEAGGTKEVPIKEIVEMNEIEEGKNKEQAINSSENIMDINEEPGTTEGEEITESSSTEEMEVRSVVADTDQKALGSEVQDASKVTTQIDKEKKEIPVSIKKEPEVTVVSQPTEPQPVLIPSININSDSGENKEEIGSLSKTETILPPESENPKENDNDSGTGSTADTSSIDLNLSISSFLSKTKDSGSISLQETRRQKKTLKKTRKFIVDGVEVSVTTSKIVTDSDSKTEELRFLRRQELRELRFLQKEEQRAQQQLNSKLQQQREQIFRRFEQEMMSKKRQYDQEIENLEKQQKQTIERLEQEHTNRLRDEAKRIKGEQEKELSKFQNMLKNRKKEVINEVEKAPKELRKELMKRRKEELAQSQHAQEQEFVQKQQQELDGSLKKIIQQQKAELANIERECLNNKQQLMRAREAAIWELEERHLQEKHQLLKQQLKDQYFMQRHQLLKRHEKETEQMQRYNQRLIEELKNRQTQERARLPKIQRSEAKTRMAMFKKSLRINSTATPDQDRDKIKQFAAQEEKRQKNERMAQHQKHENQMRDLQLQCEANVRELHQLQNEKCHLLVEHETQKLKELDEEHSQELKEWREKLRPRKKTLEEEFARKLQEQEVFFKMTGESECLNPSTQSRISKFYPIPSLHSTGS	Weak
TAOK2(TAO1) (protein) MPAGGRAGSLKDPDVAELFFKDDPEKLFSDLREIGHGSFGAVYFARDVRNSEVVAIKKMSYSGKQSNEKWQDIIKEVRFLQKLRHPNTIQYRGCYLREHTAWLVMEYCLGSASDLLEVHKKPLQEVEIAAVTHGALQGLAYLHSHNMIHRDVKAGNILLSEPGLVKLGDFGSASIMAPANSFVGTPYWMAPEVILAMDEGQYDGKVDVWSLGITCIELAERKPPLFNMNAMSALYHIAQNESPVLQSGHWSEYFRNFVDSCLQKIPQDRPTSEVLLKHRFVLRERPPTVIMDLIQRTKDAVRELDNLQYRKMKK	Strong
SGK2 (protein) LPDHCYRMNSSPAGTPSPQPSRANGNINLGPSANPNAQPTDFDFLKVIGKGNYGKVLLAKRKSDGAFYAVKVLQKKSILKKKEQSHIMAERSVLLKNVRHPFLVGLRYSFQTPEKLYFVLDYVNGGELFFHLQRERRFLEPRARFYAAEVASAIGYLHSLNIIYRDLKPENILLDCQGHVVLTDFGLCKEGVEPEDTTSTFCGTPEYLAPEVLRKEPYDRAVDWWCLGAVLYEMLHGLPPFYSQDVSQMYENILHQPLQIPGGRTVAACDLLQSLLHKDQRQRLGSKADFLEIKNHVFFSPINWDDLYHKRLTPPFNPNVTGPADLKHFDPEFTQEAVSKSIGCTPDTVASSSGASSAFLGFDYAPEDDDILDC	Weak
